One assay deals with T1, human BCMA (human, UniProt Q02223 1-54).
T1 construct: soluble analyte in SPR; also called hBCMA; huBCMA
T1 sequence: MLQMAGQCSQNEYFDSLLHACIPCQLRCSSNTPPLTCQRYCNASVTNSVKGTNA
Briefly: SPR, IgG immobilized, human BCMA analyte, 37 C. How it is done: All experiments were performed on a Bio-Rad Proteon XPR36 surface Plasmon resonance biosensor (Bio-Rad, Hercules, CA). […] The analysis temperature for the immobilization was 25° C. and the running buffer was HBS-T+(10 mM HEPES, 150 mM NaCl, 0.05% Tween-20, pH 7.4). Channels were activated in the analyte (horizontal) direction by injecting a mixture of 1 mM ECD and 0.25 mM NHS for 3 minutes at a flow rate of 30 μL/min. IgGs were immobilized on the activated spots by injecting them in the ligand (vertical) direction at […] in 10 mM Acetate pH 4.5 buffer for 1.5 minutes at […]. The activated surfaces were blocked by injecting 1M ethanolamine, pH 8.5 in the analyte direction for 3 minutes at […].
The analysis temperature for the hBCMA binding analysis was 37° C. or 25° C. in a running buffer of HBS-T+, supplemented with 1 mg/mL BSA. A kinetic titration method was employed for the interaction analysis as described in Abdiche, et al. The hBCMA (human BCMA) analyte was injected in the analyte direction using a series of injections from low to high concentration. The concentrations used were 0.08 nM, 0.4 nM, 2 nM, 10 nM and 50 nM (a 5-membered series, with a 5-fold dilution factor and top concentration of 50 nM). The association time for a given analyte dilution was two minutes. Immediately after the 50 nM hBCMA injection, dissociation was monitored for 2 hours.
The sensorgrams were double-referenced and fit to a 1:1 Langmuir with mass transport kinetic titration model in BIAevaluation Software version 4.1.1 (GE Lifesciences, Piscataway, NJ).
A general note: Surface plasmon resonance follows binding to a sensor surface in real time, without labels.

Assay [1] has as its target T2, human BCMA on BCMA-expressing tumor cells (human, UniProt Q02223 1-184).
T2 construct: endogenous BCMA of myeloma cell lines; also called BCMA on KMS12PE, MM1S (MM1.S), L363, KMS12BM cells
T2 sequence: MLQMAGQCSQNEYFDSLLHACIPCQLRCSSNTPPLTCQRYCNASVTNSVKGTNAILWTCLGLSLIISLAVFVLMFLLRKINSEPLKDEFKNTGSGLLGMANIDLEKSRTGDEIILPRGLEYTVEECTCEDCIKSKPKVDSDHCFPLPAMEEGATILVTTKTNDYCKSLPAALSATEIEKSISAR
The assay can be described thus: flow cytometry, 0.5 ug antibody on 250,000 L363 (BCMA+) cells, Alexa Fluor 647 anti-mouse IgG. How it is done: (§1) Binding of human anti-hBCMA expressed in mouse IgG2a were assessed on BCMA-expressing cells (KMS12BM, L363, MM1S and KMS12PE) by flow cytometry. 250,000 cells were incubated with 0.5 ug antibody in 100 uL binding buffer (PBS (Phosphate Buffered Saline)+0.2% BSA (Bovine Serum Albumin)), followed by incubation with Alex Fluor 647 conjugated anti-mouse IgG (Biolegend).
(In general: Flow cytometry measures light scatter and fluorescence of single cells or particles in a stream.)

For assay [2], the target named is T2, human BCMA on BCMA-expressing tumor …. Briefly: flow cytometry, 0.5 ug antibody on 250,000 MM1S (BCMA++) cells, Alexa Fluor 647 anti-mouse IgG. How it is done: as §1
The target is the same in assay [3]. Briefly: flow cytometry, 0.5 ug antibody on 250,000 KMS12BM (BCMA+) cells, Alexa Fluor 647 anti-mouse IgG. How it is done: as §1
Assay [4] shares this target. Briefly: flow cytometry, 0.5 ug antibody on 250,000 KMS12PE (BCMA+++) cells, Alexa Fluor 647 anti-mouse IgG. As to the method: as §1
The target in a further assay is T3, human CD3 (huCD3ed) (human, UniProt P07766 23-126; P04234 22-105).
T3 construct: Soluble analyte in SPR; The delta chain is inferred from the label 'ed'; also called hCD3ed; hCD3
T3 sequence (P07766 23-126, chain 1 of 2): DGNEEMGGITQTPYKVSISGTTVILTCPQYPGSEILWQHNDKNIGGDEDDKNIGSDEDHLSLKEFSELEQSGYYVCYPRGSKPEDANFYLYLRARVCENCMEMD
T3 sequence (P04234 22-105, chain 2 of 2): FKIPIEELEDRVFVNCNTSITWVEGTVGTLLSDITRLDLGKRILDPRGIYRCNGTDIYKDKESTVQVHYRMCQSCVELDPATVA
Briefly: Biacore SPR, antibody as ligand, hCD3ed; steady state affinity only, rough estimate (antibody heterogeneous).

We go through six molecules from US20240018252A1 (Pfizer, published 2024).

Positions count from the first letter of the chain named.

B1: COMBO_Rd4_0.6nM_C19 (antibody, V domains shown)
VH: EVQLLESGGGLVQPGGSLRLSCAASGFTFSSYPMSWVRQAPGKGLEWVSAIGGSGGSLPYADSVKGRFTISRDNSKNTLYLQMNSLRAEDTAVYYCARYWPMDSWGQGTLVTVSS
VL: EIVLTQSPGTLSLSPGERATLSCRASQSVSAVYLAWYQQKPGQAPRLLMYDASIRATGIPDRFSGSGSGTDFTLTISRLEPEDFAVYYCQQYRAWPLTFGQGTKVEIK
notes: IgG in SPR
By Kd is commonly meant the constant that tells how readily two partners part at equilibrium. Usually koff stands for a measure of how fast the partners let go of each other. Low values mean slow dissociation, high ones fast dissociation. By kon is commonly meant the rate constant with which the complex forms. Lower therefore signals slow association. For the molecule B1, in the assay with human BCMA, binding was characterised by a dissociation constant (Kd) of 0.02 nM, the koff was 0.000155 s⁻¹ and the kon was determined as 7.86e+06 M⁻¹ s⁻¹.

B2: A02_Rd4_6 nM_C16 expressed in mouse IgG2a (antibody, V domains shown)
VH: B1 VH with P33A, S35N, G52S, G53D, S54F, L58T, P59Y, S104I
VL: B1 VL with A31D, V32L, R93Q, A94T
On to B2, for which the MFI came to 789 in assay [1], 1950 in assay [2], 421 in assay [3] and 3090 in assay [4].

B3: Combo_Rd4_0.6 nM_C29 expressed in mouse IgG2a (antibody, V domains shown)
VH: B1 VH with S104I
VL: B1 VL with A31S, V32S, R93Q, A94S
Regarding B3, the MFI in assay [1] stood at 1670; in assay [2], 2570; in assay [3], 583; in assay [4], 6110.

B4: A02_Rd4_6 nM_C01 expressed in mouse IgG2a (antibody, V domains shown)
VH: B1 VH with P33A, S35N, G52T, G53A, L58T, P59Y, D103S, S104L
VL: B1 VL with V32Y, R93E, A94R
Consider B4, for which the MFI was determined as 1180 in assay [1], 2540 in assay [2], 580 in assay [3] and 5860 in assay [4].

B5: 7A3 (antibody, mouse IgG1, V domains shown)
VH: EVQLQQSGAELVRPGALVKLSCKGSGFNIKDYYIHWVKQRPEQGLEWIGWIDPENGNNKYDPKFQGKASITADTSSNIAYLQLSSLTSEDTAVYYCARNDNYAFDYWGQGTTVTVSS
VL: DIVVSQSPSSLAVSAGEKVIMSCKSSQSLLNSRTRKNYLAWYQLKPGQSPKLLIYSASTRESGVPDRFTGSGSGTDFTLTISSVQTEDLAVYYCMQSFTLRTFGGGTKLEIK
notes: Cloned from immunized mouse, expressed as mouse IgG1; also called anti-CD3 7A3
In the case of B5, the Kd with human CD3 (huCD3ed) is 82.7 nM.

B6: 1A4 (antibody, mouse IgG1, V domains shown)
VH: QVQLQQSGPDLVKPGASVEISCKASGYSFTTYYLHWVRQRPGQGLEWIGWIFPGSDNTKYNEKFKGKATLTADTSSSTAYMQLSSLTSEDSAVYFCARNRDYYFDYWGQGTTVTVSS
VL: B5 VL with V4M, I20T, L44Q, S56W, E61A, T86A, V91I, M95K, T99I
notes: Cloned from immunized mouse, expressed as mouse IgG1; also called anti-CD3 1A4
Consider B6, for which the Kd with human CD3 (huCD3ed) is 100 nM.
